Assay results: publication PMC3076238, “Improved mycobacterial protein production using a Mycobacterium smegmatis groEL1ΔC expression strain” (BMC Biotechnology, 2011)

Target: AccA3, α-subunit of the acyl-CoA carboxylase AccD5-AccA3 complex (Rv3285) (M. tuberculosis, UniProt P96890 1-600)
Experiment: SEC; […]; 25 mM Tris-HCl pH 8.0, 150 mM NaCl, 1 mM DTT
Conditions: both partners purified

AccA3, α-subunit of the acyl-CoA carboxylase AccD5-AccA3 complex (Rv3285), sequence (P96890 whole entry, one chain of several): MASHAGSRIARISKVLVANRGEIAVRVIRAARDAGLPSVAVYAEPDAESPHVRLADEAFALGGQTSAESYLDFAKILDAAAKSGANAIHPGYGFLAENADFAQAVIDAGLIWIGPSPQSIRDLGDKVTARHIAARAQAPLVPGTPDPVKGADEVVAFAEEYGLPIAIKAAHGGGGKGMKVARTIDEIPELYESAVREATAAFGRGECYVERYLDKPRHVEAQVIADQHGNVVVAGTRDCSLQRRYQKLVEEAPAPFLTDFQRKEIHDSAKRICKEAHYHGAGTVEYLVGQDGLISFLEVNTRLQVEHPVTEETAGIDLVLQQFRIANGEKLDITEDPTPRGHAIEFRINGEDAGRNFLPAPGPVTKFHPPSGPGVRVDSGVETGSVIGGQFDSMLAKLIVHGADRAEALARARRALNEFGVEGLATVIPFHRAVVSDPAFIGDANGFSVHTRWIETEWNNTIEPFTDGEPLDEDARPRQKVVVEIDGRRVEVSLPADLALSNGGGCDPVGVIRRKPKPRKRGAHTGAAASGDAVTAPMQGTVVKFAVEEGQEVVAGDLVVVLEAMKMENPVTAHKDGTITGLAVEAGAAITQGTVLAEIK

B1: AccD5, β-subunit of the acyl-CoA carboxylase AccD5-AccA3 complex (Rv3280), his-tagged (enzyme)
chain: MTSVTDRSAHSAERSTEHTIDIHTTAGKLAELHKRREESLHPVGEDAVEKVHAKGKLTARERIYALLDEDSFVELDALAKHRSTNFNLGEKRPLGDGVVTGYGTIDGRDVCIFSQDATVFGGSLGEVYGEKIVKVQELAIKTGRPLIGINDGAGARIQEGVVSLGLYSRIFRNNILASGVIPQISLIMGAAAGGHVYSPALTDFVIMVDQTSQMFITGPDVIKTVTGEEVTMEELGGAHTHMAKSGTAHYAASGEQDAFDYVRELLSYLPPNNSTDAPRYQAAAPTGPIEENLTDEDLELDTLIPDSPNQPYDMHEVITRLLDDEFLEIQAGYAQNIVVGFGRIDGRPVGIVANQPTHFAGCLDINASEKAARFVRTCDCFNIPIVMLVDVPGFLPGTDQEYNGIIRRGAKLLYAYGEATVPKITVITRKAYGGAYCVMGSKDMGCDVNLAWPTAQIAVMGASGAVGFVYRQQLAEAAANGEDIDKLRLRLQQEYEDTLVNPYVAAERGYVDAVIPPSHTRGYIGTALRLLERKIAQLPPKKHGNVPL
B1: binds.
